# Like-named read-outs stand apart in the source and are kept apart here.
# Experiments:
# [1] = target: cell-bound C3b on sheep erythrocytes (EAC4b,3b, called EC3b) (human) (UniProt P01024); experiment: radioligand binding
# [2] = target: cell-bound C3b on sheep erythrocytes (EAC4b,3b, called EC3b) (human) (UniProt P01024); experiment: radioligand binding; remark: listed apart in the source
# Chain of UniProt P01024 (P01024 23-667, chain 1 of 2): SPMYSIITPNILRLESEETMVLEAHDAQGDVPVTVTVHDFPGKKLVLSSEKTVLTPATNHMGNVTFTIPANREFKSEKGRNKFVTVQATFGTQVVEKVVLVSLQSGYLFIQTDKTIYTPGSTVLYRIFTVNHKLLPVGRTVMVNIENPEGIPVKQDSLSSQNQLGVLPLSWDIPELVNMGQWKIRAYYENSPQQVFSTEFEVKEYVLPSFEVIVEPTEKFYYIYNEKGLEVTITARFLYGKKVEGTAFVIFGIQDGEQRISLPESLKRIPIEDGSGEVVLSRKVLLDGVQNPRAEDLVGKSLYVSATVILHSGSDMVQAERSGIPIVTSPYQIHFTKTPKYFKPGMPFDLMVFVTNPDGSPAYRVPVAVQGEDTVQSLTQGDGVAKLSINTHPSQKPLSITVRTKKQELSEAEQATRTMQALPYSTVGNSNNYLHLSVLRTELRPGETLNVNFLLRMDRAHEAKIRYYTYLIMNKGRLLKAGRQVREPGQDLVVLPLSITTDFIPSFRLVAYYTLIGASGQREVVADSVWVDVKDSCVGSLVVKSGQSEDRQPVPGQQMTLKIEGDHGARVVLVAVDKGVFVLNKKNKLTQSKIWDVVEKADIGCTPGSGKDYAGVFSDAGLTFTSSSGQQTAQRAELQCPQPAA
# Chain of UniProt P01024 (P01024 749-1663, chain 2 of 2): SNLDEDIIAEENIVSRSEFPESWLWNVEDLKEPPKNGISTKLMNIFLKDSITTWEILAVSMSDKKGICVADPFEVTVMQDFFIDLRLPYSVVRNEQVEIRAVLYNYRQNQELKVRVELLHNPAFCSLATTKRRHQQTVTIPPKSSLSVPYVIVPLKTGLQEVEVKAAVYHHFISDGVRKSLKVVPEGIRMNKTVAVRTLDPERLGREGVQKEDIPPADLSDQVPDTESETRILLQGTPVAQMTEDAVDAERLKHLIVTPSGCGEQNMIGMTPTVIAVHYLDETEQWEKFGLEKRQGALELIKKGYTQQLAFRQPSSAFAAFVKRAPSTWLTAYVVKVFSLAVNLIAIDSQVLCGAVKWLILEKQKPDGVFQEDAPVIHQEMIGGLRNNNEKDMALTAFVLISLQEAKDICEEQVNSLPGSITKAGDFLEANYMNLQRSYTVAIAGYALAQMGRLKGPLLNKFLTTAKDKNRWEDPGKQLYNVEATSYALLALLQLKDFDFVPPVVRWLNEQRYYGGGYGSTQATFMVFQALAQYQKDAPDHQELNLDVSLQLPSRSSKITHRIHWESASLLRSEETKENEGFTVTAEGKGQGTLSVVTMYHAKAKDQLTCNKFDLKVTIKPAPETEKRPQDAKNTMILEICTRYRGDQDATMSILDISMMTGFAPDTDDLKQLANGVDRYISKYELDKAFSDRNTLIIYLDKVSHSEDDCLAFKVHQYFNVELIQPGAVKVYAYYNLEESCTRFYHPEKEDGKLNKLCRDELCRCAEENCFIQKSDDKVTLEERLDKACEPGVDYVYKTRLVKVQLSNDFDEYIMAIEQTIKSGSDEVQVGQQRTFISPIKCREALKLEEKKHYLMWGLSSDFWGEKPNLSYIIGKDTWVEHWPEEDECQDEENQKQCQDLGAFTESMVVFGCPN
percent of input taken up [1] [%],stoichiometry N (molecules P per molecule C3b) [1],uptake (cpm) [1] [cpm],uptake (cpm) [2] [cpm],Substance
< 1,< 10,–,–,activated properdin (P) (from UniProt P27918 28-469) (natural protein)
–,–,378,10700,precursor properdin (pre-P) (from UniProt P27918 28-469) (natural protein)
